The values that follow come from article doi:10.1101/2021.03.09.434543.

The target of data set [1] is OsFD7, FLIM-FRET fusion (rice (Oryza sativa)). The experiment in a line: FRET or BRET.
For data set [2], the target named is OsFD7 (OsbZIP62)-GST;OsFTL1-GST;OsGF14b-GST (Oryza sativa (rice);Oryza sativa …, UniProt B7F384;B7ELI3;Q7XTE8 1-274;1-276;1-262, ||). The experiment in a line: EMSA.
In a further data set the target is OsGF14b-GST (Oryza sativa (rice), UniProt Q7XTE8 1-262). The experiment in a line: EMSA.
OsGF14b-GST, sequence (Q7XTE8 whole entry): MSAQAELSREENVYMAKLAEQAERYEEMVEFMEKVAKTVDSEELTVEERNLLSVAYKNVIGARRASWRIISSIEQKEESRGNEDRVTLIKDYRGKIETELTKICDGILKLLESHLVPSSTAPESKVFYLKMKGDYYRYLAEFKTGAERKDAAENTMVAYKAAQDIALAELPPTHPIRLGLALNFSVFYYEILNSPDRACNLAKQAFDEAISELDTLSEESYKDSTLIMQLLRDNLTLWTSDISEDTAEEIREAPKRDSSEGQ
The target of the next data set is OsFTL1-GST (Oryza sativa (rice), UniProt B7ELI3 1-276). The experiment in a line: EMSA.
A further data set deals with T1, OsFD7 (OsbZIP62)-GST (Oryza sativa (rice), UniProt B7F384 1-274).
T1 sequence: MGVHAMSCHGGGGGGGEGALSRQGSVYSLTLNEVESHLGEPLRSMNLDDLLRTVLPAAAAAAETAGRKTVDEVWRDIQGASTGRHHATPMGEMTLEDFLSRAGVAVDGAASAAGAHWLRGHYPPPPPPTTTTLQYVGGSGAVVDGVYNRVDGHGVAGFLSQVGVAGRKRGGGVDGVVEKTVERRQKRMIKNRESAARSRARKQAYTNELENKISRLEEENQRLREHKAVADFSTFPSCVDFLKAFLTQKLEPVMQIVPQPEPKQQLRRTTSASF
The experiment in a line: EMSA.

Data set [3] addresses OsFD7 (OsbZIP62)-GST;OsFTL1-GST (Oryza sativa (rice);Oryza sativa (rice), UniProt B7F384;B7ELI3 1-274;1-276, |). The experiment in a line: EMSA.

Molecule “Hd3a, FLIM-FRET fusion (from UniProt Q93WI9 1-179) (natural protein)” displayed an FRET efficiency in data set [1] of 15.1%.
The same measure, in the same setting: in the case of “OsFTL1, FLIM-FRET fusion (natural protein)” it was 23.3%.

B1: GB oligo (dsDNA)
DNA 1: GTCACATACACGTGTCAGCTCAG
DNA 2: CTGAGCTGACACGTGTATGTGAC
For the molecule B1, the binding result in data set [2] is “binds”; with OsGF14b-GST it was “no binding”; with OsFTL1-GST, “no binding”; in the data set with OsFD7 (OsbZIP62)-GST, “binds”; in data set [3], “binds”.
